The text below walks through data of the RNAGym collection of RNA variant scans (doi:10.7554/elife.80360).

B1: CPEB3 Ribozyme (parent)
chain: GGGGGCCACAGCAGAAGCGUUCACGUCGCGGCCCCUGUCAGAUUCUGGUGAAUCUGCGAAUUCUGCUGU

The variants in this series derive from B1. The experiment in a line: self-cleavage, relative activity (ratio to wild type); higher = more cleavage; co-transcriptional.
Take GGGGGCCACAGCAGUAGCGUUCACGUCGCGGCCCCUGUCUGAUUCUGGUGAAUCUGCGAAUUCUGCUGU: the self-cleavage was 0.288.
With GGGGGCCACAGCAGUAGCGUUCACGUCGCGGCCCCUGUCAGAUUCUGGUGAAUCUGCGAAUACUGCUGU the figure was 1.01; with GGGGGCCACAGCAGUAGCGUACACGUCGCGGCCCCUGUCAGAUUCUGGUGAAUCUGCGAAUUCUGCUGU, 0.841.
For the variant GGGGGCCACAGCAGUAGCGUUCACGUCGCGGCCCCUGUCAGAUUCUGGUGAAUCUGCGAAUUCUUCUGU, the self-cleavage is 0.47.
As for GGGGGCCACAGCAGUAGCGUUCACGUCGCGGCCCCUGUCAGAUUCUGGUGAAUCUGCGAAUUCUACUGU, the self-cleavage was 0.753.
As to GGGGGCCACAGCAGGAGCGUUCACGUCGCGGCCCCUGUCAGAUUCUCGUGAAUCUGCGAAUUCUGCUGU, the self-cleavage worked out at 1.05.
Regarding GGGGGCCACAGCAGGAGCGUUCACGUCGCGGCCCCUGUCAGAUUCUUGUGAAUCUGCGAAUUCUGCUGU, the self-cleavage came out at 1.04.
Turning to GGGGGCCACAGCAGUAGCGUUCACGUCGCGGCCCCUGUCAGAUUCUGGUGAAUCUGCGAAAUCUGCUGU, the self-cleavage was found to be 0.931.
Regarding GGGGGCCACAGCAGUAGCGUUCACGUCGCGGCCCAUGUCAGAUUCUGGUGAAUCUGCGAAUUCUGCUGU, the self-cleavage was determined as 0.192.
As for GGGGGCCACAGCAGUAGCGUUCACGUCGCGGCCCGUGUCAGAUUCUGGUGAAUCUGCGAAUUCUGCUGU, the figure is 0.187; as for GGGGGCCACAGCAGUAGCGUUCACGUCGCGGCCCCUGUCAGAUUCUGGUGAAUCGGCGAAUUCUGCUGU, 0.335; as for GGGGGCCACAGCAGGAGCGUUCACGUCGCGGCCCCUGACAGAUUCUGGUGAAUCUGCGAAUUCUGCUGU, 0.877.
As for GGGGGCCACAGCAGUACCGUUCACGUCGCGGCCCCUGUCAGAUUCUGGUGAAUCUGCGAAUUCUGCUGU, the self-cleavage is 0.171.
GGGGGCCACAGCAGUAGCGUUCACGUCGCGGCCCCUGUCAGAUUCUGGUAAAUCUGCGAAUUCUGCUGU: the self-cleavage came to 0.943.
For the variant GGGGGCCACAGCAGUAGCGUUCACGUCGCGGCCCCCGUCAGAUUCUGGUGAAUCUGCGAAUUCUGCUGU, the self-cleavage was 0.557.
Take GGGGGCCACAGCAGGACCGUUCACGUCGCGGCCCCUGUCAGAUUCUGGUGAAUCUGCGAAUUCUGCUGU: the self-cleavage amounted to 0.138.
Take GGGGGCCACAGCAGGAGCGCUCACGUCGCGGCCCCUGUCAGAUUCUGGUGAAUCUGCGAAUUCUGCUGU: the self-cleavage was found to be 0.126.
GGGGGCCACAGCAGUAGCGUUCACGUCGUGGCCCCUGUCAGAUUCUGGUGAAUCUGCGAAUUCUGCUGU: the self-cleavage amounted to 0.151.
As for GGGGGCCACAGCAGGAGCGUUCACGUCGCGGCCCCUGUCAGAAUCUGGUGAAUCUGCGAAUUCUGCUGU, the figure is 0.851; as for GGGGGCCACAGCAGGAGCGUUCACGUCGCGGCCCCUGUCAGAGUCUGGUGAAUCUGCGAAUUCUGCUGU, 0.779.
Turning to GGGGGCCACAGCAGGAGCGUUCACGUCGCGGCCCCUGUCAGAUUCUGGUGAAUCUGCGAAUUCUGGUGU, the self-cleavage was 0.862.
In the case of GGGGGCCACAGCAGGAGCGUUCACGUCGCGGCCCCUGUCAGAUUCUGGUUAAUCUGCGAAUUCUGCUGU, the self-cleavage is 0.995.
GGGGGCCACAGCAGGAGCGUUCACGUCGCGGCCCCUGUCAGAUUCUGGUCAAUCUGCGAAUUCUGCUGU: the self-cleavage amounted to 0.956.
With GGGGGCCACAGCAGGAGCGUUCACGUCGCGGCCCCUGUCAGAUUCUGGUGAAUCUGCGAAUGCUGCUGU, the self-cleavage was 0.94.
GGGGGCCACAGCAGGAGCGUUCACGUCGCGGCCCCUGUCAGAUUCUGGUGAAUCUGCAAAUUCUGCUGU: the self-cleavage worked out at 0.964.
As for GGGGGCCACAGCAGUAGCGUUCACGUCGCGGCCCCUGUCAGAUUCUGGUGAAUCUGCGAAUUGUGCUGU, the self-cleavage is 0.764.
As for GGGGGCCACAGCAGUAGCGUUCACGUCGCGGCCCCUGUCAGAUCCUGGUGAAUCUGCGAAUUCUGCUGU, the figure is 0.516; as for GGGGGCCACAGCAGUAGCGUUCACGUCGCGGCCCCUGUCAGAUGCUGGUGAAUCUGCGAAUUCUGCUGU, 0.713; as for GGGGGCCACAGCAGGAGCGUUCACGUCGCCGCCCCUGUCAGAUUCUGGUGAAUCUGCGAAUUCUGCUGU, 0.618.
Consider GGGGGCCACAGCAGUGGCGUUCACGUCGCGGCCCCUGUCAGAUUCUGGUGAAUCUGCGAAUUCUGCUGU, for which the self-cleavage was 0.56.
Consider GGGGGCCACAGCAGUAGCGUUCAAGUCGCGGCCCCUGUCAGAUUCUGGUGAAUCUGCGAAUUCUGCUGU, for which the self-cleavage came out at 0.299.
For GGGGGCCACAGCAGGAGCGUUCACGUCCCGGCCCCUGUCAGAUUCUGGUGAAUCUGCGAAUUCUGCUGU, the self-cleavage stood at 0.165.
Take GGGGGCCACAGCAGUAGCGUUCACGUCGCGGCCCCUGUCAGAUUCUGGUGAAUCUUCGAAUUCUGCUGU: the self-cleavage came to 0.517.
On to GGGGGCCACAGCAGUAGCGUUCACGUCGCGGCCCCUGUCAGAUUCUGCUGAAUCUGCGAAUUCUGCUGU, for which the self-cleavage worked out at 0.965.
For the variant GGGGGCCACAGCAGUAGCGUUCACGUCGCGGCCCCUGUCAGAUUCUGUUGAAUCUGCGAAUUCUGCUGU, the self-cleavage stood at 0.9.
With GGGGGCCACAGCAGUAGCGUUCACGUCGCGGCCCCUGCCAGAUUCUGGUGAAUCUGCGAAUUCUGCUGU the figure was 0.613; with GGGGGCCACAGCAGUAGCGUUCACGUCGCGGUCCCUGUCAGAUUCUGGUGAAUCUGCGAAUUCUGCUGU, 0.913.
As for GGGGGCCACAGCAGUAGCGUUCACGUCGCGGCCCCUGUCAGAUUCUGGUGUAUCUGCGAAUUCUGCUGU, the self-cleavage was found to be 0.851.
As to GGGGGCCACAGCAGACGCGUUCACGUCGCGGCCCCUGUCAGGUUCUGGUGAAUCUGCGAAUUCUGCUGU, the self-cleavage was 0.24.
